Data from US11994512B2, “Single-cell genomic methods to generate ex vivo cell systems that recapitulate in vivo biology with improved fidelity” (Massachusetts Institute of Technology, priority 2018, dated 2024).

B1: P23881 (protein, UniProt P23881 1-347, looked up)
chain: MGLEEELLRIAKKLEKMVSRKKTEGALDLLKKLNSCQMSIQLLQTTRIGVAVNGVRKHCSDKEVVSLAKVLIKNWKRLLDSPRTTKGEREEREKAKKEKGLGCSDWKPEAGLSPPRKKGGGEPKTRRDSVDSRSSTTSSPKRPSLERSNSSKSKVETPTTPSSPSTPTFAPAVCLLAPCYLTGDSVRDKCVEMLSAALKAEDNFKDYGVNCDKLASEIEDHIYQELKSTDMKYRNRVRSRISNLKDPRNPGLRRNVLSGAISPELIAKMTAEEMASDELRELRNAMTQEAIREHQMAKTGGTTTDLLRCSKCKKKNCTYNQVQTRSADEPMTTFVLCNECGNRWKFC
modifications: full-length
B2: P43137 (protein, UniProt P43137 1-165, looked up)
chain: MARNAYFILLSCLIVLSPSQGQEAEEDLPSARISCPEGSNAYSSYCYYFTEDRLTWADADLFCQNMNSGYLVSVLSQAEGNFVASLIKESGTTDANVWTGLHDPKRNRRWHWSSGSLFLYKSWATGSPNSSNRGYCVSLTSNTGYKKWKDDNCDAQYSFVCKFKG
modifications: full-length
B3: P31362 (protein, UniProt P31362 1-431, looked up)
chain: MVNLEPMHTEIKMSGDVADSTDTRSTFGQVEPGNDRNGLDFNRQIKTEDLGDSLQQTLSHRPCHLSQGPTMMPGNQMSGDMASLHPLQQLVLVPGHLQSVSQFLLSQTPPGQQGLQPNLLSFPQQQSTLLLPQTGPGLASQAVGRPGLSGSSLEPHLDAPQHLPGPKHLPGPGGNDEPTDLEELEKFAKTFKQRRIKLGFTQGDVGLAMGKLYGNDFSQTTISRFEALNLSFKNMCKLKPLLEKWLNDAESSPSDPSASTPSSYPTLSEVFGRKRKKRTSIETNIRLTLEKRFQDNPKPSSEEISMIAEQLSMEKEVVRVWFCNRRQKEKRINCPVATPVKPPIYNSRLVSPSGSLGPLSVPPVHSTMPGTVTSSCSPGNNSRPSSPGSGLHASSPTASQNNSKAAMNSSSSSSFNSSGSWYRWNHPTYLH
modifications: full-length
B4: P27600 (protein, UniProt P27600 1-379, looked up)
chain: MSGVVRTLSRCLLPAEAGARERRAGAARDAEREARRRSRDIDALLARERRAVRRLVKILLLGAGESGKSTFLKQMRIIHGREFDQKALLEFRDTIFDNILKGSRVLVDARDKLGIPWQHSENEKHGMFLMAFENKAGLPVEPATFQLYVPALSALWRDSGIREAFSRRSEFQLGESVKYFLDNLDRIGQLNYFPSKQDILLARKATKGIVEHDFVIKKIPFKMVDVGGQRSQRQKWFQCFDGITSILFMVSSSEYDQVLMEDRRTNRLVESMNIFETIVNNKLFFNVSIILFLNKMDLLVEKVKSVSIKKHFPDFKGDPHRLEDVQRYLVQCFDRKRRNRSKPLFHHFTTAIDTENIRFVFHAVKDTILQENLKDIMLQ
modifications: full-length
B5: P19467 (protein, UniProt P19467 1-573, looked up)
chain: MKGFLLLSLSLLLVTVGSSSQASSTTSSSGGTSPPTTVQSQSPGSSSQASTTTSSSGGASPPTTVQSQSPGSSSQASTTTSSSGGASPPTTVQSQSPGSSSQASTTTSSSGGASPPTTVQSQSPGSSSQASTTTSSSGGASPPTTVQSQSPGSSSQASTTTSSSGGASPPTTVQSQSPGSSSQVSTTTSSSGGASPPTTVQSQSPGSSSQPGPTQPSGGASSSTVPSGGSTGPSDLCNPNPCKGTASCVKLHSKHFCLCLEGYYYNSSLSSCVKGTTFPGDISMSVSETANLEDENSVGYQELYNSVTDFFETTFNKTDYGQTVIIKVSTAPSRSARSAMRDATKDVSVSVVNIFGADTKETEKSVSSAIETAIKTSGNVKDYVSINLCDHYGCVGNDSSKCQDILQCTCKPGLDRLNPQVPFCVAVTCSQPCNAEEKEQCLKMDNGVMDCVCMPGYQRANGNRKCEECPFGYSGMNCKDQFQLILTIVGTIAGALILILLIAFIVSARSKNKKKDGEEQRLIEDDFHNLRLRQTGFSNLGADNSIFPKVRTGVPSQTPNPYANQRSMPRPDY
modifications: full-length
B6: P40338 (protein, UniProt P40338 1-181, looked up)
chain: MPRKAASPEEAAGEPGPEEMEAGRPRPVLRSVNSREPSQVIFCNRSPRVVLPLWLNFDGEPQPYPILPPGTGRRIHSYRGHLWLFRDAGTHDGLLVNQTELFVPSLNVDGQPIFANITLPVYTLKERCLQVVRSLVKPENYRRLDIVRSLYEDLEDYPSVRKDIQRLSQEHLESQHLEEEP
modifications: full-length
B7: P43883 (protein, UniProt P43883 1-425, looked up)
chain: MAAAVVDPQQSVVMRVANLPLVSSTYDLVSSAYVSTKDQYPYLRSVCEMAEKGVKTVTSAAMTSALPIIQKLEPQIAVANTYACKGLDRMEERLPILNQPTSEIVASARGAVTGAKDVVTTTMAGAKDSVASTVSGVVDKTKGAVTGSVERTKSVVNGSINTVLGMVQFMNSGVDNAITKSELLVDQYFPLTQEELEMEAKKVEGFDMVQKPSNYERLESLSTKLCSRAYHQALSRVKEAKQKSQETISQLHSTVHLIEFARKNMHSANQKIQGAQDKLYVSWVEWKRSIGYDDTDESHCVEHIESRTLAIARNLTQQLQTTCQTVLVNAQGLPQNIQDQAKHLGVMAGDIYSVFRNAASFKEVSDGVLTSSKGQLQKMKESLDEVMDYFVNNTPLNWLVGPFYPQSTEVNKASLKVQQSEVKAQ
modifications: full-length
B8: P30681 (protein, UniProt P30681 1-210, looked up)
chain: MGKGDPNKPRGKMSSYAFFVQTCREEHKKKHPDSSVNFAEFSKKCSERWKTMSAKEKSKFEDLAKSDKARYDREMKNYVPPKGDKKGKKKDPNAPKRPPSAFFLFCSENRPKIKIEHPGLSIGDTAKKLGEMWSEQSAKDKQPYEQKAAKLKEKYEKDIAAYRAKGKSEAGKKGPGRPTGSKKKNEPEDEEEEEEEEEEEDDEEEEEDEE
modifications: full-length

System: intracellular proteome of ENR+CD and ENR organoids
Assay: LC-MS/MS TMT proteomics of ENR+CD versus ENR organoids
Assay type: cell-based, C57BL/6 mice
Details: for Average logFC / M1-1 Log2 Median Normalized / M1-2 Log2 Median Normalized / M2-1 Log2 Median Normalized / M2-2 Log2 Median Normalized: protein abundance, ENR+CD versus ENR organoids; for Average logFC: aggregate of the four sample pairs; for M1-1 Log2 Median Normalized: replicate M1-1; for M1-1 Log2 Median Normalized / M1-2 Log2 Median Normalized / M2-1 Log2 Median Normalized / M2-2 Log2 Median Normalized: log2 ratio; for M1-2 Log2 Median Normalized: replicate M1-2; for M2-1 Log2 Median Normalized: replicate M2-1; for M2-2 Log2 Median Normalized: replicate M2-2; for change: up = enriched in ENR+CD, down = enriched in ENR, FDR<0.05 and log fold change cut-off

| Molecule | Average logFC | M1-1 Log2 Median Normalized | M1-2 Log2 Median Normalized | M2-1 Log2 Median Normalized | M2-2 Log2 Median Normalized | change |
| --- | --- | --- | --- | --- | --- | --- |
| B1 | −1.33 | −1.331 | −1.172 | −1.7775 | −1.12 | down |
| B2 | −2.852 | −2.092 | −3.168 | −4.1035 | −2.045 | down |
| B3 | −1.897 | −1.567 | −1.082 | −2.3845 | −2.554 | down |
| B4 | −2.195 | −1.957 | −1.145 | −2.8495 | −2.827 | down |
| B5 | 1.199 | 1.437 | 0.978 | 1.3955 | 0.984 | up |
| B6 | −1.533 | −1.026 | −1.492 | −1.5695 | −2.043 | down |
| B7 | 1.236 | 1.328 | 1.122 | 0.9365 | 1.559 | up |
| B8 | −1.315 | −1.316 | −1.094 | −1.2715 | −1.62 | down |
